Results on 1 substance are retold here after patent publication US20040072749A1.

The assay concerns the target cell-surface MOG-specific IgG1 of 8.18-C5 hybridoma cells. Briefly: flow cytometry on 8.18-C5 hybridoma cells, biotinylated rMOG and FITC-streptavidin. Background: A flow cytometer gives signals particle by particle.

Regarding recombinant, biotinylated MOG (rMOG), the percent of cells that bound rMOG is over 90%.
